The record followed here is patent publication US20190241662A1 (ADAGENE, published 2019).

Experiment [1] has as its target T1, human B7H3 on HEK293F cells (human, UniProt Q5ZPR3 29-534).
T1 construct: whole, on cells
T1 sequence (looked up): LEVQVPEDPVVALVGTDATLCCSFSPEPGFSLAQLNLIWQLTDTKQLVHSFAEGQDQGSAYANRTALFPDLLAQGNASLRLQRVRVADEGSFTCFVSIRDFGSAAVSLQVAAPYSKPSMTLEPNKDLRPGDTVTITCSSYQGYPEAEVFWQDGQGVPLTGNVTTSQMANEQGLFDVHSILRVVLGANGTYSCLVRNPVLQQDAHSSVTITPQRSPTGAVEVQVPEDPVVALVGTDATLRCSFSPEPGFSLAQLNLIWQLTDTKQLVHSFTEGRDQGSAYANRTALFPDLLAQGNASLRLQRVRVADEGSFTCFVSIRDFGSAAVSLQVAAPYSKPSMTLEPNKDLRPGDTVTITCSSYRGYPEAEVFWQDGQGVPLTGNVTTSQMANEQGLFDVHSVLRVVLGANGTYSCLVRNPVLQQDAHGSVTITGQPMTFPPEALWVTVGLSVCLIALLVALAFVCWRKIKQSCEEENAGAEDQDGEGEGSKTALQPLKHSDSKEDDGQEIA
Nature of the experiment: flow cytometry, transfected HEK293F cells.

In experiment [2] the target is T2, human PD1 on HEK293F cells (human, UniProt Q15116 25-288).
T2 construct: whole, on cells
Nature of the experiment: flow cytometry, transfected HEK293F cells [Cont.]. The procedure: (§1) Antibody selectivity was next examined. Human CTLA4, PD1, LAG3, Tim3, B7H3, CD95, TNFR1, OX40, CD40, PD-L1, BLTA, VISTA, PDL2, ICOS and B7H4 were transiently overexpressed on the surface of HEK293F cells. Transfected cells were washed in pre-chilled 1×PBSA buffer (1.76 mM KH2PO4, 10.14 mM Na2HPO4.12H2O, 2.68 mM KCl, 136.89 mM NaCl and 1% BSA), then incubated with 100 nM test antibodies for 1 hour on ice. Cells were washed once with staining buffer, and Alexa Fluor® 647 conjugated mouse anti-human FC antibodies were added and incubated for 30 minutes on ice, protected from light. Samples were washed once with staining buffer prior to analysis by flow cytometry.

In experiment [3] the target is T3, human LAG3 on HEK293F cells (human, UniProt P18627 23-525).
T3 construct: whole, on cells
T3 sequence (looked up): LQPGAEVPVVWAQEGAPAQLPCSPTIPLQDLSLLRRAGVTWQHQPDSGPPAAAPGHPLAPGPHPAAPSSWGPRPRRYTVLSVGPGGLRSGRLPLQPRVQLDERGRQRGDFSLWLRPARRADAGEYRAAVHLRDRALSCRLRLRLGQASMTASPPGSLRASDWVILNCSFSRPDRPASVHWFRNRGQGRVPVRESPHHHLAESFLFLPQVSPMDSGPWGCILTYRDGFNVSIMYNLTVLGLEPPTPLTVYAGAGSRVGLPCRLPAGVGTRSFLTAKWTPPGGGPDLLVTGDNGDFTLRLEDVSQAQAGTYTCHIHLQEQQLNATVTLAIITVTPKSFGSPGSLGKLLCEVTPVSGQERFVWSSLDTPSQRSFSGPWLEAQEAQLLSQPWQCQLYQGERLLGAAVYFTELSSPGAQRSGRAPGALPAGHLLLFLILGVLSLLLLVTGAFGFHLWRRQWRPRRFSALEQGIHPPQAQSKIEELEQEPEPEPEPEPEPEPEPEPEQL
The experiment in a line: flow cytometry, transfected HEK293F cells [Cont.]. The procedure: as §1
In general terms: In flow cytometry, cells or beads pass a laser one at a time.

For experiment [4], the target named is T4, human OX40 on HEK293F cells (human, UniProt P43489 29-277).
T4 construct: whole, on cells
T4 sequence (looked up): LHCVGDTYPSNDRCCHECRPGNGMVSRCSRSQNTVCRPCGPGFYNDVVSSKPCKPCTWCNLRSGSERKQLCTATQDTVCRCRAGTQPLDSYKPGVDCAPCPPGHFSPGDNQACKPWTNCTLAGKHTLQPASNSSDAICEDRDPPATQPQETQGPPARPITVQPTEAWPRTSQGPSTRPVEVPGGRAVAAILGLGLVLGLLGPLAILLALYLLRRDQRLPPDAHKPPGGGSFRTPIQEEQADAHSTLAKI
Nature of the experiment: flow cytometry, transfected HEK293F cells.

The target in experiment [5] is T5, human CD95 on HEK293F cells (human, UniProt P25445 26-335).
T5 construct: whole, on cells
T5 sequence (looked up): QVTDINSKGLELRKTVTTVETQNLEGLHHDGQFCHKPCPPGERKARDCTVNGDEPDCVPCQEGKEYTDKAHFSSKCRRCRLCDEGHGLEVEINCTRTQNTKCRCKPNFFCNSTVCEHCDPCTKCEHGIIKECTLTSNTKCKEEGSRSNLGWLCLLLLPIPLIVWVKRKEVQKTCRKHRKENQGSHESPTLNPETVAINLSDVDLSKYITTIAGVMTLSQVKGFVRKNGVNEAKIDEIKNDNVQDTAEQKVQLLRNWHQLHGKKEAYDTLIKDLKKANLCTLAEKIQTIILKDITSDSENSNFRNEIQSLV
The experiment in a line: flow cytometry, transfected HEK293F cells, 100 nM antibody. The procedure:
as §1

Experiment [6] addresses T6, human TNFR1 on HEK293F cells (human, UniProt P19438 30-455).
T6 construct: whole, on cells; also called CD120a
T6 sequence (looked up): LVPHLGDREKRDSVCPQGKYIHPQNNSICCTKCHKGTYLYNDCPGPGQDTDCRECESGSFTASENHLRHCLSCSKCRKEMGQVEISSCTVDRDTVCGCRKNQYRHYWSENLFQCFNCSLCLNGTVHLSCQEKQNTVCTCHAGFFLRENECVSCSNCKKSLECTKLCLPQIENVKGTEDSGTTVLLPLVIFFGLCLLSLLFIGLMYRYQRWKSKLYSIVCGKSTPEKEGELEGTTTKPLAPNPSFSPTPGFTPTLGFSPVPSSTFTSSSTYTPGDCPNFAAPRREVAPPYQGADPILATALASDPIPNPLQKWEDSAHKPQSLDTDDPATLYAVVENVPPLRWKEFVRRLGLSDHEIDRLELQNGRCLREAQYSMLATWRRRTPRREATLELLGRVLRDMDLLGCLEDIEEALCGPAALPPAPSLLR
Nature of the experiment: flow cytometry, transfected HEK293F cells [Cont.]. The method, then:
as §1

Experiment [7] has as its target T5, human CD95 on HEK293F cells. Nature of the experiment: flow cytometry, transfected HEK293F cells [Cont.]. The method, then:
as §1

Experiment [8] deals with T4, human OX40 on HEK293F cells. The experiment in a line: flow cytometry, transfected HEK293F cells [Cont.]. The procedure:
as §1

T2 sequence (Q15116 25-288): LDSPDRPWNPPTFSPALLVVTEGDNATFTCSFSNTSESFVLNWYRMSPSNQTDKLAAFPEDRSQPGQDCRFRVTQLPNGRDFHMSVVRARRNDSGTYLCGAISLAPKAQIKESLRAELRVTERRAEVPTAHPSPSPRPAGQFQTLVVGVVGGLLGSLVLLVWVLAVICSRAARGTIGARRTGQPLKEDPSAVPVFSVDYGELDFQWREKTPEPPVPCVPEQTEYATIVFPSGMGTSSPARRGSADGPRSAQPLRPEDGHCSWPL

B1: TY21691 (antibody, V domains shown)
VH: EVQLVESGGGLVQPGGSLRLSCAASGFTFSDYAIHWVRQAPGKGLEWIGIISPSGGSTKYAQKFQGRVTISRDNSKNTLYLQLNSLRAEDTAVYYCARLGYGYFDVWGQGTLVTVSS
VL: DIQLTQSPSSLSASVGDRVTITCRASQSVDFYGISFLHWYQQKPGKAPKLLIYDASSLESGVPSRFSGSGSGTDFTLTISSLQPEDFATYYCVQALQLPLTFGQGTKVEIK
notes: human IgG1 (hIgG1) from Fab hit B15736
In the case of B1, in experiment [1], the binding result is reported as “no binding (tested: 100 nM)”.

B2: TY21687 (antibody, V domains shown)
VH: EVQLVESGGGLVQPGGSLRLSCAASGFTFSGYAIHWVRQAPGKGLEWIGIISPSGGGTKYAQKFQGRVTISRDNSKNTLYLQLNSLRAEDTAVYYCARHPFAYWGQGTLVTVSS
VL: DIQLTQSPSSLSASVGDRVTITCRASQSVDFYGISFLDWYQQKPGKAPKLLIYDASNRATGIPSRFSGSGSGTDFTLTISSLQPEDFATYYCQQYVSSPPEYTFGQGTKVEIK
notes: human IgG1 (hIgG1) from Fab hit B15700
As to B2, the binding result in experiment [2] and in experiment [3] was “no binding (tested: 100 nM)” in each case.

B3: TY21585 (antibody, V domains shown)
VH: EVQLVESGGGLVQPGGSLRLSCAASGFTFSDYAIHWVRQAPGKGLEWIGIISPSSGSTNYAQKFQGRVTISRDNSKNTLYLQLNSLRAEDTAVYYCARDIHSGSSGYYYGFDVWGQGTLVTVSS
VL: DIQLTQSPSSLSASVGDRVTITCRASESVDFFGISFLAWYQQKPGKAPKLLIYDASNRATGIPSRFSGSGSGTDFTLTISSLQPEDFATYYCQHYTSSPPVYTFGQGTKVEIK
notes: human IgG1 (hIgG1) from Fab hit B15709
Turning to B3, the binding result in experiment [4] is “no binding (tested: 100 nM)”. In experiment [5], the “% of cells in upper right quadrant (Q2)” value amounted to 0.23 and the “Mean” value amounted to 6720.

B4: TY21591 (antibody, V domains shown)
VH: EVQLVESGGGLVQPGGSLRLSCAASGFSLSTGGVAVSWIRQAPGKGLEWIGEIYHSGSTYYSPSLKSRVTISRDNSKNTLYLQLNSLRAEDTAVYYCARRIATATYFDYWGQGTLVTVSS
VL: DIQLTQSPSSLSASVGDRVTITCRASQTVFSRYLAWYQQKPGKAPKLLIYDASNRATGIPSRFSGSGSGTDFTLTISSLQPEDFATYYCQQSYYWPPWTFGQGTKVEIK
notes: human IgG1 (hIgG1) from Fab hit B15756
In the case of B4, the binding result in experiment [6], in experiment [7] and in experiment [8] was “no binding (tested: 100 nM)” each time.
